Like-named read-outs stand apart in the source and are kept apart here.
Tests used:
[1] = biological target: T1, CCR2 (Homo sapiens, UniProt P41597); conditions: higher for CCR2; cited from earlier work
[2] = system: THP-1_ADRA1B^KO cells; experiment: Cyclic AMP measurement in forskolin-stimulated THP-1_ADRA1B^KO cells; format: cell-based, human; conditions: forskolin-stimulated THP-1_ADRA1B^KO cells; 100 nM CCL2, 15 min at 37° C.; FIG. 2B
Procedure: (§1) Cyclic AMP amounts were measured using the cAMP complete enzyme immunoassay kit, acetylated format (Enzo Life Sciences). 4×10^5 cells were incubated with forskolin/isobutylmethylxanthine (10 μM/0.5 mM final concentrations) in 0.1% BSA/10 mM Hepes-buffered RPMI and treated with CCL2 in the presence or absence of 1 μM PE, 1 μM PT or 100 nM NE at 37° C. for 15 min. The cells were lysed by incubating with 0.1 M HCl at room temperature for 20 min. The cAMP amounts in the lysate supernatant were measured following the manufacturer's instructions.

[3] = system: THP-1 cells (CCR2-mediated Gαi signaling); experiment: Cyclic AMP measurement in forskolin-stimulated THP-1 cells; format: cell-based, human; conditions: for % inhibition of cAMP production by CCL2: 100 nM CCL2, FIG. 2F
Procedure: as §1

[4] = biological target: T2, mouse CCR2 (Mus musculus, UniProt P51683); experiment: Gαi activation assay (TRUPATH BRET), HEK293T cells transfected with mouse CCR2; format: cell-based; conditions: FIG. 9A
T2 construct: expressed in transfected cells; host or cells: HEK293T
T2 sequence (P51683 whole entry): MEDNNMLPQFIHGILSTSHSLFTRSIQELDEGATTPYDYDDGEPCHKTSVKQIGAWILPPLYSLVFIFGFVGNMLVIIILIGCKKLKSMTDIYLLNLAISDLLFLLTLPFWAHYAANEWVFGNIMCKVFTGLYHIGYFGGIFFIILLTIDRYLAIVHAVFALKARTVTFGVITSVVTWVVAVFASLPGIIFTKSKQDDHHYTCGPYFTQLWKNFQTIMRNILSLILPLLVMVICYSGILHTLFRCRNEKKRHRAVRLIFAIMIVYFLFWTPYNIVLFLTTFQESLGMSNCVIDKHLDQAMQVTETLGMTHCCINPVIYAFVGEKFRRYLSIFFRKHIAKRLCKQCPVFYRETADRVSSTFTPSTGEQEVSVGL
Procedure: (§2) HEK293T cells were plated in a 6-well plate and transfected with 0.2 μg each of Gαi1-Rluc8, Gβ3 and Gγ9-GFP2 (Trupath) together with 0.2 μg of mouse or human CCR2 with either pcDNA3.1 or α1b-AR. One day after transfection, cells were trypsinized and replated to 96-well poly-L lysine precoated plates. After overnight incubation, cells were replaced with 0.1% glucose/PBS. Prolume Purple (NanoLight Tech.) or coelenterazine 400a in a final concentration of 5 μM were added in experiments with human or mouse CCR2, respectively, and incubated at room temperature for 3 min. Ligands at various concentrations were added to cells and incubated at room temperature for 5 min before luminescence was measured at 410 nm and 515 nm. […] The BRET changes were calculated by subtracting the BRET signal of untreated cells.

[5] = biological target: T1, CCR2; experiment: BRET assay for β-arrestin recruitment, HEK293T with CCR2-Rluc and β-arrestin-YFP without α1b-AR; format: cell-based; conditions: FIG. 5C, read-out: EC50 of CCL2, BRET between CCR2-Rluc and β-arrestin-YFP
Procedure: (§3) β-arrestin recruitment was measured by BRET, as described (Armando, 2014; Berchiche, 2011). In brief, HEK293T cells were plated in a 6-well plate and transfected with 0.1 μg of CCR2-RluII and 1.9 μg β-arrestin-YFP with 0.1 μg pcDNA3.1 or α1b-AR. One day after transfection, cells were re-plated into 96-well poly-L lysine precoated plates. After overnight incubation, cells were replaced with 0.1% glucose/PBS. Coelenterazine H in a final concentration of 5 μM was added to cells and incubated at room temperature for 3 min. […] The BRET changes were calculated by subtracting the BRET signal of untreated cells.

[6] = biological target: T3, CCR2:α1b-AR heteromers (Homo sapiens, UniProt P35368+P41597); experiment: BRET assay for β-arrestin recruitment, HEK293T co-expressing CCR2-Rluc, β-arrestin-YFP and α1b-AR; format: cell-based; set-up: expressed in transfected cells; conditions: CCL2 plus vehicle; FIG. 5D
T3 sequence (P41597 whole entry): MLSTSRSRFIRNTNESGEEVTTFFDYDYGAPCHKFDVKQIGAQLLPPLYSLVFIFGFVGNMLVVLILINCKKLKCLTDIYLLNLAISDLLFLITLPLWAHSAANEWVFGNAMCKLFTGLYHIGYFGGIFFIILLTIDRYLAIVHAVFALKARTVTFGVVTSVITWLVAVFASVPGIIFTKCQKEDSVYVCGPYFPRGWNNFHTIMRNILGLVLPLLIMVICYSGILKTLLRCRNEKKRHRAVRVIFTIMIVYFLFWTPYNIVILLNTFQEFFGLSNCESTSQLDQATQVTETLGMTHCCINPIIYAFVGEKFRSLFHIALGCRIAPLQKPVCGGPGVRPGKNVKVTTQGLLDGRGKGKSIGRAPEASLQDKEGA
T3 sequence (P35368 whole entry): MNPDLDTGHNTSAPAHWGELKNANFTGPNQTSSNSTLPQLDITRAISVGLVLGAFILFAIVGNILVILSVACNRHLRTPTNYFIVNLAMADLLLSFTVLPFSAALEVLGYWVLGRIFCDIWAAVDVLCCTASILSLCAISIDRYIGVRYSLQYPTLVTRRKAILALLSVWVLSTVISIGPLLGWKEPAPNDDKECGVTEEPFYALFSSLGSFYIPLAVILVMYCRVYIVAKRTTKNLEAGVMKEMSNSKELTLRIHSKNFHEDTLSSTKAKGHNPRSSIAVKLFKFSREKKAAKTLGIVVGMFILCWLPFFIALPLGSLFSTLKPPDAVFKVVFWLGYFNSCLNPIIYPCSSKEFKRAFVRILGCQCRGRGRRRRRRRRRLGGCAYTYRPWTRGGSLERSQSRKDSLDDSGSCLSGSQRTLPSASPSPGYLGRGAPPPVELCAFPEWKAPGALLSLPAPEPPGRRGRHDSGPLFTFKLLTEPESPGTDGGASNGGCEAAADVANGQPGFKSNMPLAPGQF
Procedure: as §3

[7] = biological target: T1, CCR2; experiment: Gαi activation assay (TRUPATH BRET), HEK293T cells transfected with CCR2 plus pcDNA3 (CCR2 alone); format: cell-based
Procedure: as §2

[8] = biological target: T4, α1b-AR:CCR2 heteromer (Homo sapiens, UniProt P35368+P41597); experiment: Gαi activation assay (TRUPATH BRET), HEK293T cells transfected with CCR2 plus α1b-AR; format: cell-based
T4 construct: expressed in transfected cells; host or cells: HEK293T
T4 sequence (P41597 whole entry): as the sequence (P41597 whole entry) above
T4 sequence (P35368 whole entry): as the sequence (P35368 whole entry) above
Procedure: as §2

[9] = biological target: T1, CCR2; experiment: Radioligand competition binding assay, [125I]-CCL2, crude membrane preparations of THP-1 cells; set-up: host or cells: THP-1; conditions: THP-1 cells pretreated with vehicle; mean±SE, n=3; read-out: IC50 of CCL2 to displace [125I]-CCL2
Procedure: Cells were then centrifuged at 30,000× g (20 min, 4° C.), the supernatant was discarded, and pelleted cell fragments were snap-frozen in liquid nitrogen. The cell pellets were resuspended in 50 mM HEPES, 5 mM MgCl2, 1 mM CaCl2, 0.1% w/v BSA, pH 7.2, and then incubated with 50 pM [^125I]-CCL2, 1× Xpert Protease Inhibitor Cocktail (GenDEPOT), and varying concentrations of CCL2 for 1.5 h at 25° C. Bound [^125I]-CCL2 was collected via vacuum filtration using buffer containing 10 mM HEPES (pH 7.4) and 0.5 M NaCl at 4° C., and a cell harvester (Brandel) equipped with glass fiber filters. Radioactivity was measured in a gamma counter at 70% efficiency.

[10] = biological target: T3, CCR2:α1b-AR heteromers; experiment: PRESTO-Tango β-arrestin recruitment assay, HTLA cells with CCR2-Tango plus α1b-AR; format: cell-based; set-up: Tango module of the TANGO vector (C); expressed in transfected cells; host or cells: HTLA
Procedure: The assays were performed as described previously (Albee, 2017; Gao, 2022; Albee, 2018; Eby, 2017; Cheng, 2017). HTLA cells were seeded in a 6-well plate and transfected with 750 ng FLAG-CCR2-Tango together with 750 ng pcDNA3.1 or HA-α1b-AR using TransIT-2020 Transfection Reagent. The next day, cells (75,000 cells/well) were plated onto poly-L-Lysine pre-coated 96-well plates and allowed to attach to the plate surface for at least 4 hours prior to treatment. Cells were treated with receptor ligands at the concentrations indicated in the figure legends for 2 h and then replaced with fresh full medium and incubated overnight at 37° C., 5% CO2 in a humidified environment. The following morning, medium was replaced with a 100 μL 1:10 mixture of Bright-Glo (Promega) and PBS. Plates were then incubated at room temperature for 10 min before measuring luminescence on a Biotek Synergy II plate reader. Relative luminescence units (RLU) are expressed as fold changes of RLU vs unstimulated cells.

T1 sequence (P41597 whole entry): as the sequence (P41597 whole entry) above

## CCL2: chemokine (C-C motif) ligand 2, cognate agonist of CCR2, CCR3 and CCR5
[1]
  binding affinity of CCL2 for CCR2 relative to CCR3 and CCR5: approximately 100 fold
[2]
  inhibition of cAMP production by CCL2: 30±4%
[3]; THP-1 cells incubated with non-targeting siRNA
  % inhibition of cAMP production by CCL2: 66±5%
[3]; THP-1 cells incubated with α1B-AR siRNA
  % inhibition of cAMP production by CCL2: 46±4%
[3]; forskolin-stimulated THP-1 cells, 100 nM CCL2, 15 min at 37° C., FIG. 2B
  reduction of cAMP levels by CCL2: 56±6%
[4]
  bottom plateau, Gαi1 activation by human CCL2: −0.073±0.009
[4]; read-out: EC50 of human CCL2, Gαi1 activation
  EC50: 3.5 ± 3.1 nM
[5]
  EC50: 3.5 ± 0.9 nM
[6]
  EC50: 3.7 ± 0.5 nM
  Top plateau, β-arrestin recruitment BRET: 0.06±0.001
[7]; cells transfected with CCR2 alone, FIG. 1B
  bottom plateau (BRET change), Gαi1 activation by CCL2: −0.03±0.001
[7]; cells transfected with CCR2 alone, FIG. 1B, read-out: EC50 of CCL2, Gαi1 activation
  EC50: 3.31 nM
[7]; human CCR2, FIG. 9A
  bottom plateau, Gαi1 activation by human CCL2: −0.058±0.004
[7]; human CCR2, FIG. 9A, read-out: EC50 of human CCL2, Gαi1 activation
  EC50: 1.4 ± 0.8 nM
[8]; CCL2 plus vehicle, FIG. 4C
  bottom plateau, CCL2-induced Gαi activation: −0.04±0.002
[8]; CCL2 plus vehicle, FIG. 4C, read-out: EC50 of CCL2 to induce Gαi activation
  EC50: 0.9 ± 0.25 nM
[8]; CCL2 plus vehicle, FIG. 4D
  bottom plateau, CCL2-induced Gαi activation: −0.04±0.002
[8]; CCL2 plus vehicle, FIG. 4D, read-out: EC50 of CCL2 to induce Gαi activation
  EC50: 1.3 ± 0.4 nM
[8]; CCL2 plus vehicle, FIG. 4F
  bottom plateau, CCL2-induced Gαi activation: −0.042±0.002
[8]; CCL2 plus vehicle, FIG. 4F, read-out: EC50 of CCL2 to induce Gαi activation
  EC50: 1.5 ± 0.5 nM
[8]; cells transfected with CCR2 plus α1b-AR, FIG. 1B
  bottom plateau (BRET change), Gαi1 activation by CCL2: −0.037±0.001
[8]; cells transfected with CCR2 plus α1b-AR, FIG. 1B, read-out: EC50 of CCL2, Gαi1 activation
  EC50: 0.94 ± 0.2 nM
[9]
  IC50: 0.167 ± 0.023 nM
[10]; CCL2 alone, FIG. 5B
  EC50: 1.6 ± 1.3 nM
[10]; agonist alone
  efficacy to induce β-arrestin recruitment to CCR2: 43±5 fold change RLU
[10]; higher
  efficacy of CCL2 relative to phenylephrine to recruit β-arrestin to CCR2: 18 fold
